{"source": "patent US20160310575A1", "about": "(INDIANA UNIVERSITY RESEARCH AND TECHNOLOGY, published 2016)", "key": {"[1]": {"target": "T1, human GIP-R (human, UniProt P48546 22-466)", "T1 sequence (looked up)": "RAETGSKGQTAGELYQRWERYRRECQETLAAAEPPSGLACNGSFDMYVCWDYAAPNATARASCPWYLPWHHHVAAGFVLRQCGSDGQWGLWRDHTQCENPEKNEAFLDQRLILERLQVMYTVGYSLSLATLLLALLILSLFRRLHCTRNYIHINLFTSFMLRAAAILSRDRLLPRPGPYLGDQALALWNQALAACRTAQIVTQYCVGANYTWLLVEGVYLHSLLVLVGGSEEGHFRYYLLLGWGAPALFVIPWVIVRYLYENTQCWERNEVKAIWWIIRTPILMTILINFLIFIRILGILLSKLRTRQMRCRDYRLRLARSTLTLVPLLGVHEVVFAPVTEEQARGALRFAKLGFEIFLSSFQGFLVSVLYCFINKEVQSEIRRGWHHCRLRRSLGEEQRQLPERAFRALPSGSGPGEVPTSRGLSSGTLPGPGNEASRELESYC", "assay": "cell-based or functional assay"}, "[2]": {"target": "human GLP-R (human, UniProt P43220 24-463)", "assay": "cell-based or functional assay"}}, "note": "Non-standard residues stand in square brackets, D forms with d. No end group written: not given here. Aib = CC(C)(N)C(=O)O"}
{"binder": "Y[Aib]EGTFTSDYSIYLDKQAA[Aib]EFVAWLLAGGPSSGAPPPSKLPETGGSGS-NH2 (also: PEG (site and size not given here))", "note": "[PEG-peptide-long24A]", "values": [{"measurement": "EC50 [nM], GIP-R (cAMP assay)", "setting": "[1]", "result": 7.51, "unit": "nM"}, {"measurement": "EC50 [nM], GLP1-R (cAMP assay)", "setting": "[2]", "result": 3.89, "unit": "nM"}]}
